Reference: patent US20160264662A1 (US Dept. of Health and Human Services, published 2016)

T1: recombinant human TEM8 ectodomain (human, UniProt Q9H6X2 33-321)
T1 construct: also called TEM8-ED; Tumor Endothelial Marker 8
T1 sequence: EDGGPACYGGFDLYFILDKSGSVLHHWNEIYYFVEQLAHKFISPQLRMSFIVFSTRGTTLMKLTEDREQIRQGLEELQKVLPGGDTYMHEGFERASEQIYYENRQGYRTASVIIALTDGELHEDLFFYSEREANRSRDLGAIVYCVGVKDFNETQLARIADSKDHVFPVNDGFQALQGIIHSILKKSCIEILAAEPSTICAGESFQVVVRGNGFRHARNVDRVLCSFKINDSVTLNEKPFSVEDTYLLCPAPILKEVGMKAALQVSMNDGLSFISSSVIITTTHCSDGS

B1: m825-MMAE conjugate (m825 antibody in human IgG1 format conjugated to MMAE) (other)
VH: QVQLVQSGAEVKKPGTSVKVSCKVPGYTFSSYAISWVRQAPGQGLEWMGGIIPIFGTTNYAQKFQGRVTITGEESTSTVYMELSSLRSEDTAVYYCARDTDYMFDYWGQGTLVTVSS
VL: SSELTQDPVVSVALGETVSITCQGDNLRDFYASWYQQKPGQAPLLVMYGKNRRPSGIPDRFSGSTSGNTLSLTITGAQAEDEADYYCSSRDNSKHVVFGGGTKVTVL
modifications: MMAE with stretcher unit, Val-Cit peptide cleavage site and spacer, attached to thiol groups formed by partial reduction of inter-chain disulfide bonds (positions not stated)
notes: also called anti-TEM8-MMAE
B2: m830 antibody in human IgG1 format (antibody, V domains shown)
VH: EVQLVESGGGVVQPGRSVRLSCAASGFTFSTYTMHWVRQAPGKGLEWVAIISNDGSNKYYADPVRGRFTISRDNSKNTLYLQMNSLRAEDTAVYYCVRGSSWYRGNWFDPWGQGTLVTVSS
VL: DIQMTQSPSSLSASVGDRVTIACRASQTISRYLNWYQQKPGKAPKLLIYAASSLQSGVSSRFSGSGSGTEFTLTISSLQPEDFATYFCQQTYSPPITFGQGTRLEIKR
notes: also called m830 mAb; human m830-IgG1
B3: m863 antibody in human IgG1 format (antibody, V domains shown)
VH: EVQLVETGAEVKKPGASVKVSCKASGYTFTGYYMHWVRQAPGQGLEWMGWINPTSGSTNYAQKFQGRVTMTRDTSISTAYMELSGLRSDDTAVYYCVRDPGSPKWLAFDPWGQGTLVTVSS
VL: DIQLTQSPSSLSASVGDRVTITCRASRAISRYLNWYQQKPGKAPKLLIYAASSLQSGVSSRFSGSGSGTEFTLTISSLQPEDFATYFCQQTYSPPITFGQGTRLEIKR
notes: also called m863 mAb
B4: m825 antibody in human IgG1 format (antibody, V domains shown)
VH: QVQLVQSGAEVKKPGTSVKVSCKVPGYTFSSYAISWVRQAPGQGLEWMGGIIPIFGTTNYAQKFQGRVTITGEESTSTVYMELSSLRSEDTAVYYCARDTDYMFDYWGQGTLVTVSS
VL: SSELTQDPVVSVALGETVSITCQGDNLRDFYASWYQQKPGQAPLLVMYGKNRRPSGIPDRFSGSTSGNTLSLTITGAQAEDEADYYCSSRDNSKHVVFGGGTKVTVL
notes: also called m825 mAb; human m825-IgG1
B5: m822 antibody in human IgG1 format (antibody, V domains shown)
VH: QVQLVQSGAEVKKPGASVKVSCKVSGYTFSSYAISWVRQAPGQGLEWMGGIIPIFGTANYAQKFQGRVTITADESTSTAYMELSSLRSEDTAVYYCARDTDYMFDYWGQGTLVTVSS
VL: SSELTQDPVVSVALGETVSITCQGDNLRDFYASWYQQKPGQAPLLVMYGKNRRPSGIPDRFSGSTSGNTLSLTITGAQAEDEADYYCSSRDNSKHVVFGGGTKVTVL
notes: also called m822 mAb

Columns and labels:
[1] = target: recombinant TEM8 (AP-TEM8); test: ELISA-type titration of m825-MMAE on recombinant AP-TEM8; absorbance at 450 nm against Log (ng/well)
[2] = target: T1, recombinant human TEM8 ectodomain; test: SPR (Biacore), antibody in IgG1 format, recombinant human TEM8 ectodomain; apparent KD
[3] = target: T2, human CMG2 (hCMG2) expressed on CHO or 293 cells (human, UniProt P58335 34-489); test: flow cytometry (FACS), CHO cells expressing hCMG2 against parental CHO
T2 construct: whole, on cells; also called ANTXR2
T2 sequence (P58335 34-489): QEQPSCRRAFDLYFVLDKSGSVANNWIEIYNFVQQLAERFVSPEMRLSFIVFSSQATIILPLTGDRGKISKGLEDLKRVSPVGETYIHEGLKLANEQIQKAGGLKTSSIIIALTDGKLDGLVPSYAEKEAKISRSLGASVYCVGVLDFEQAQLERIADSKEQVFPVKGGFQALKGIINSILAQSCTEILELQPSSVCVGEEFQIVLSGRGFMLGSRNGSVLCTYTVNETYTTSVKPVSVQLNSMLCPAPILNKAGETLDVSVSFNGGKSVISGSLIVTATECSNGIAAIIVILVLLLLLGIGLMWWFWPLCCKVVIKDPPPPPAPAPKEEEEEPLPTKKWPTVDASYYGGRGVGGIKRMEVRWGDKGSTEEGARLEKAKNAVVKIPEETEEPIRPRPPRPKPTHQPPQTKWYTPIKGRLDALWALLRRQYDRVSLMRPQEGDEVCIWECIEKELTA

[4] = target: T3, 293 mCMG2 (mouse, UniProt Q6DFX2); test: flow cytometry (FACS), 293 cells expressing mCMG2 against parental 293
T3 construct: expressed on human embryonic kidney 293 cells; also called mouse CMG2; mouse ANTXR2 expressed on 293 cells
T3 sequence (Q6DFX2 32-487 limits assumed): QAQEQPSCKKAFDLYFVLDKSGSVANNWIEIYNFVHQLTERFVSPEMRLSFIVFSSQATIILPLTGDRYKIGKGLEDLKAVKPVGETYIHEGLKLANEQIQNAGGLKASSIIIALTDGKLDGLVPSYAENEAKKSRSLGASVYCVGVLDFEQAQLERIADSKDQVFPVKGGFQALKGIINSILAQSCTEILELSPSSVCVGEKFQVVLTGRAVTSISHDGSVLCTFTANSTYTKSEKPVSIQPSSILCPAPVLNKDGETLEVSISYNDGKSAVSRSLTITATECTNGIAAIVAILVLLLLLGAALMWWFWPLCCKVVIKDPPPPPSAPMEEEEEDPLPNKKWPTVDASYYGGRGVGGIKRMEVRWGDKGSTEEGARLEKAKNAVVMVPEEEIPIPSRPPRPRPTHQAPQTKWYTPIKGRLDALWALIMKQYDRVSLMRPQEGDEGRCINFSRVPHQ

| Binder | EC50 (read off the curve) [1] [ng/well] | Kd [2] [nM] | binding result [3] | binding result [4] |
| --- | --- | --- | --- | --- |
| B1 | ~0.5 |  |  |  |
| B2 |  | 12 | no binding | no binding |
| B3 |  | 1.2 | no binding | no binding |
| B4 |  | 0.034 |  |  |
| B5 |  | 35 |  |  |
